The values that follow come from US20240228656A1.

For the assay, the target named is cynomolgus EpCAM protein (cynomolgus). In words: colorimetric ELISA. (In general: ELISA stands for enzyme-linked immunosorbent assay.)
cynomolgus EpCAM protein (cynomolgus), sequence (Q1WER1 27-265 limits assumed): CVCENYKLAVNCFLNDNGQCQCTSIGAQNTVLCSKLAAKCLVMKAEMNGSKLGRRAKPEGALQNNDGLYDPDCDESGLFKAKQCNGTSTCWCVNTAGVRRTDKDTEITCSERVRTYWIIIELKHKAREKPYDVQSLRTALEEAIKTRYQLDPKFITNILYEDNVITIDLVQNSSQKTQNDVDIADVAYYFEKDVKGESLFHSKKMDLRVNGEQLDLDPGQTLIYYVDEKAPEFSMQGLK

B1: EPL145 (VHH)
VHH: QVQLQESGGGLVQAGGSLRLSCAASGFIFRAASMGWFRQSPGNERELVATVSSGGFTNYADSVKGRFTISRDNAKNTVYLQMNSLKPEDTAVYFCGATFVRSDGHHTIYGQGTQVTVSS
On to B1, for which the Cynomolgus EpCAM/Control worked out at 2 and the ELISA absorbance came out at 0.4 absorbance.

B2: EPL159 (VHH)
VHH: QVQLQESGGGLVQAGGSLRLSCAASGFAFGNHWMYWYRQAPGRGRELVASISSGGSTNYVDSVKGRFTISRDNARNTVYLQMYSLKPEDTAVYYCGTSDNWGQGTQVTVSS
In turn, B2 showed a Cynomolgus EpCAM/Control of 2 and an ELISA absorbance of 0.2 absorbance.
